Assay [1] concerns the target T1, integrin β3 cytoplasmic domain (Homo sapiens, UniProt P05106).
T1 sequence (P05106 742-788 limits assumed): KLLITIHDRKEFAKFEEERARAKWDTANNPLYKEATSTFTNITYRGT
The experiment in a line: Immunochemical ELISA: αIIb peptides added to fixed saturating β3 peptide, competition for anti-model protein antibody binding to coated αIIbβ3 (EC50 determination). The conditions noted are these: for EC50: dose of αIIb peptide resulting in B/B0=0.5 with fixed saturating β3 peptide (20-50 nM). The text has this:
Antibodies raised against a mimic of the present invention were used in an immunochemical assay to identify compounds that bind to the 3 cytoplasmic domain and induce a conformation change. In this assay, the binding of the αIIb and β3 cytoplasmic tails was first analyzed. […] Furthermore, as shown in this Table, point mutations or deletions that disrupted this heptapeptide sequence in the αIIb cytoplasmic domain also disrupted interaction with β3.
αIIbβ3 was purified by gel filtration in accordance with procedures described by Du et al. (Cell 65:409-416 (1991)) with omission of the heparin and Con A affinity chromatography steps. The final product was greater than 95% homogenous as judged by SDS PAGE. In the enzyme-linked immunosorbent assay (ELISA) the αIIbβ3 was used at a concentration of 5 μg/ml in a coating buffer containing 0.1 M NaHCO3 and 0.05% NaN3. Fifty ul/well was used to coat IMMULON II microtiter wells at 4° C. overnight. After removal of the coating solution, 150 Al blocking buffer (coating buffer containing 5% bovine serum albumin) was added. After an additional one hour incubation at 4° C., the blocking buffer was removed and the plates were washed three times with wash buffer (0.01 M Tris, 0.15 M NaCl, 0.01% thimerisol, 0.05% Tween 20, pH 8.0). Twenty-five microliters of the competitor was added to each well followed by 25 μl of a dilution of the anti-model protein antibody. Following mixing, the plate was covered for one hour at 37° C. and washed four times with wash buffer. To quantify bound antibody, 50 μl of horseradish peroxidase-conjugated goat anti-rabbit IgG (Biorad) was diluted to a concentration of 1/1000 in wash buffer containing 1 mg/ml bovine serum albumin. These plates were then incubated at 37° C. for 1.5 hours. After four washes, bound antibody was assayed by measuring peroxidase activity with O-phenylenediamine as a substrate and quantifying reaction product by its optical density at 490 nm. Data were expressed as B/B0 where B=A490 in the presence of competitor and B0=A490 in its absence. In some experiments, varying concentrations of αIIb peptides were added to a fixed, saturating, quantity of β3 peptide (20-50 nM). Competition was again expressed as B/BO, however, B0 was the A490 in the presence of the β3 peptide and no added αIIb peptide. EC50 was defined as the dose of αIIb resulting in B/B0=0.5.
Background: ELISA stands for enzyme-linked immunosorbent assay.

The test system of a further assay is platelet αIIbβ3. As to the kind of experiment: ELISA: inhibition by competitor of anti-mimic antibody reactivity with native platelet αIIbβ3. The assay is classed as binding, human. Particulars: antibody raised against FIG. 2 heterodimeric mimic; result in words. How it is done: Antibodies against these heteromeric complexes of the present invention that recognize combinatorial epitopes of the cytoplasmic domains of the complex can be produced in accordance with well known techniques. For example, antibodies were prepared against the heterodimeric complex of FIG. 2. […] Thus, this antibody recognized combinatorial epitopes in the cytoplasmic domain of the native receptor that were mimicked in the model protein.
Antibodies to the model protein depicted in FIG. 2 were raised in 2.5 kg New Zealand white rabbits. One hundred microliters of a water solution containing 1 mg/ml of the model protein was emulsified in 1 ml incomplete Freund's adjuvant and administered subcutaneously to each New Zealand white rabbit. Two additional injections at 2-week intervals were followed by bleeding (approximately 50 mls) at monthly intervals until the rabbits were sacrificed. Blood was permitted to clot at room temperature, and the serum was recovered by centrifugation. Serum was heat inactivated at 56° C. for 30 minutes and stored at −20° C. A pre-immune serum, obtained prior to immunization, was used as a control.
αIIbβ3 was purified by gel filtration in accordance with procedures described by Du et al. (Cell 65:409-416 (1991)) with omission of the heparin and Con A affinity chromatography steps. […] To quantify bound antibody, 50 μl of horseradish peroxidase-conjugated goat anti-rabbit IgG (Biorad) was diluted to a concentration of 1/1000 in wash buffer containing 1 mg/ml bovine serum albumin. […] After four washes, bound antibody was assayed by measuring peroxidase activity with O-phenylenediamine as a substrate and quantifying reaction product by its optical density at 490 nm. Data were expressed as B/B0 where B=A490 in the presence of competitor and B0=A490 in its absence. In some experiments, varying concentrations of αIIb peptides were added to a fixed, saturating, quantity of β3 peptide (20-50 nM). Competition was again expressed as B/BO, however, B0 was the A490 in the presence of the β3 peptide and no added αIIb peptide. […]

The target in assay [2] is T2, Full-length β3 peptide (β3 cytoplasmic tail) (UniProt P05106 742-788, limits assumed).
T2 construct: domain: cytoplasmic domain; also called wild-type β3
T2 peptide (looked up): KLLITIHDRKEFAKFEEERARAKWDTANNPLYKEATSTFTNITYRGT
As to the kind of experiment: αIIb peptide titrated with fixed saturating β3 peptide; inhibition of antibody binding to coated αIIbβ3 (ELISA), EC50 at B/B0=0.5.

The next assay deals with talin (Homo sapiens, UniProt Q9Y490). The experiment in a line: Affinity chromatography of cell lysates on cytoplasmic domain mimics, talin detected. The assay is classed as binding. Details: endogenous in cells; host or cells: human platelets (also Jurkat, HT1080, mouse C2C12 myotubes). The conditions noted are these: NHS-biotin-labeled human platelet lysates; result in words. The text has this: To study possible influences of the structural changes induced by the Gly insertions, protein models were produced having the β1A cytoplasmic domain with one, two and three additional Gly residues inserted after the heptad-repeat motif (G2-, G3-, G4-β1A) and compared with the G1-β1A construct. As an additional control, a variant of the G4-β1A peptide was produced with a Tyr to Ala substitution in the membrane-proximal NPXY-motif (G4-β1A-Y788A) (FIG. 1). This mutation interferes with focal adhesion targeting and activation of integrins. The purified proteins were bound via their N=terminal His-Tag to a Ni^2+−resin and used in affinity chromatography experiments with lysates of NHS-biotin-labeled human platelets. Marked changes in the pattern of protein binding were observed as a consequence of the Gly insertions. Polypeptides migrating at 45, 56, 58, 140 and 240 kDa bound only to the mimics with Gly insertions. […] Using monoclonal antibodies, the 240 kDa and 45 kDa proteins were identified as filamin and actin, respectively. […] Talin bound to the G1- and G4-β1A construct but not to the Y788A-G4β1A construct. Thus, the structural changes in the model induced by the insertion of glycines into the coiled-coil motif and the integrin cytoplasmic domain sequence alter interactions of these proteins with cellular components. Alterations of the β1A tail that block cytoskeletal interactions, such as the Y788 mutation and β1B- and β1C-splice variants also abrogate binding to talin and filamin. Consequently, the observed in vitro interactions are likely to be biologically relevant.
Human platelets were obtained by centrifugation of freshly drawn blood samples at 1000 rpm for 20 minutes and sedimentation of the resulting platelet-rich plasma at 2600 rpm for 15 minutes. They were washed twice with 0.12 M NaCl, 0.0129 M trisodium citrate, 0.03 M glucose, pH 6.5, and once in Hepes-Saline (3.8 mM Hepes, 137 mM NaCl, 2.7 mM KCl, 5.6 mM D-Glucose, 3.3 mM Na2HPO4, pH 7.3-7.4). […]

In assay [3] the target is T2, Full-length β3 peptide (β3 cytoplasmic …). The experiment in a line: competitive ELISA with β3 peptide and anti-model protein antibody on coated αIIbβ3.

Ends that are not written are not given here.

What is called EC50 is the concentration at which the effect is half-maximal. A lower EC50 goes with greater potency.

Sequence of talin (Q9Y490 whole entry, the tested form may be a part): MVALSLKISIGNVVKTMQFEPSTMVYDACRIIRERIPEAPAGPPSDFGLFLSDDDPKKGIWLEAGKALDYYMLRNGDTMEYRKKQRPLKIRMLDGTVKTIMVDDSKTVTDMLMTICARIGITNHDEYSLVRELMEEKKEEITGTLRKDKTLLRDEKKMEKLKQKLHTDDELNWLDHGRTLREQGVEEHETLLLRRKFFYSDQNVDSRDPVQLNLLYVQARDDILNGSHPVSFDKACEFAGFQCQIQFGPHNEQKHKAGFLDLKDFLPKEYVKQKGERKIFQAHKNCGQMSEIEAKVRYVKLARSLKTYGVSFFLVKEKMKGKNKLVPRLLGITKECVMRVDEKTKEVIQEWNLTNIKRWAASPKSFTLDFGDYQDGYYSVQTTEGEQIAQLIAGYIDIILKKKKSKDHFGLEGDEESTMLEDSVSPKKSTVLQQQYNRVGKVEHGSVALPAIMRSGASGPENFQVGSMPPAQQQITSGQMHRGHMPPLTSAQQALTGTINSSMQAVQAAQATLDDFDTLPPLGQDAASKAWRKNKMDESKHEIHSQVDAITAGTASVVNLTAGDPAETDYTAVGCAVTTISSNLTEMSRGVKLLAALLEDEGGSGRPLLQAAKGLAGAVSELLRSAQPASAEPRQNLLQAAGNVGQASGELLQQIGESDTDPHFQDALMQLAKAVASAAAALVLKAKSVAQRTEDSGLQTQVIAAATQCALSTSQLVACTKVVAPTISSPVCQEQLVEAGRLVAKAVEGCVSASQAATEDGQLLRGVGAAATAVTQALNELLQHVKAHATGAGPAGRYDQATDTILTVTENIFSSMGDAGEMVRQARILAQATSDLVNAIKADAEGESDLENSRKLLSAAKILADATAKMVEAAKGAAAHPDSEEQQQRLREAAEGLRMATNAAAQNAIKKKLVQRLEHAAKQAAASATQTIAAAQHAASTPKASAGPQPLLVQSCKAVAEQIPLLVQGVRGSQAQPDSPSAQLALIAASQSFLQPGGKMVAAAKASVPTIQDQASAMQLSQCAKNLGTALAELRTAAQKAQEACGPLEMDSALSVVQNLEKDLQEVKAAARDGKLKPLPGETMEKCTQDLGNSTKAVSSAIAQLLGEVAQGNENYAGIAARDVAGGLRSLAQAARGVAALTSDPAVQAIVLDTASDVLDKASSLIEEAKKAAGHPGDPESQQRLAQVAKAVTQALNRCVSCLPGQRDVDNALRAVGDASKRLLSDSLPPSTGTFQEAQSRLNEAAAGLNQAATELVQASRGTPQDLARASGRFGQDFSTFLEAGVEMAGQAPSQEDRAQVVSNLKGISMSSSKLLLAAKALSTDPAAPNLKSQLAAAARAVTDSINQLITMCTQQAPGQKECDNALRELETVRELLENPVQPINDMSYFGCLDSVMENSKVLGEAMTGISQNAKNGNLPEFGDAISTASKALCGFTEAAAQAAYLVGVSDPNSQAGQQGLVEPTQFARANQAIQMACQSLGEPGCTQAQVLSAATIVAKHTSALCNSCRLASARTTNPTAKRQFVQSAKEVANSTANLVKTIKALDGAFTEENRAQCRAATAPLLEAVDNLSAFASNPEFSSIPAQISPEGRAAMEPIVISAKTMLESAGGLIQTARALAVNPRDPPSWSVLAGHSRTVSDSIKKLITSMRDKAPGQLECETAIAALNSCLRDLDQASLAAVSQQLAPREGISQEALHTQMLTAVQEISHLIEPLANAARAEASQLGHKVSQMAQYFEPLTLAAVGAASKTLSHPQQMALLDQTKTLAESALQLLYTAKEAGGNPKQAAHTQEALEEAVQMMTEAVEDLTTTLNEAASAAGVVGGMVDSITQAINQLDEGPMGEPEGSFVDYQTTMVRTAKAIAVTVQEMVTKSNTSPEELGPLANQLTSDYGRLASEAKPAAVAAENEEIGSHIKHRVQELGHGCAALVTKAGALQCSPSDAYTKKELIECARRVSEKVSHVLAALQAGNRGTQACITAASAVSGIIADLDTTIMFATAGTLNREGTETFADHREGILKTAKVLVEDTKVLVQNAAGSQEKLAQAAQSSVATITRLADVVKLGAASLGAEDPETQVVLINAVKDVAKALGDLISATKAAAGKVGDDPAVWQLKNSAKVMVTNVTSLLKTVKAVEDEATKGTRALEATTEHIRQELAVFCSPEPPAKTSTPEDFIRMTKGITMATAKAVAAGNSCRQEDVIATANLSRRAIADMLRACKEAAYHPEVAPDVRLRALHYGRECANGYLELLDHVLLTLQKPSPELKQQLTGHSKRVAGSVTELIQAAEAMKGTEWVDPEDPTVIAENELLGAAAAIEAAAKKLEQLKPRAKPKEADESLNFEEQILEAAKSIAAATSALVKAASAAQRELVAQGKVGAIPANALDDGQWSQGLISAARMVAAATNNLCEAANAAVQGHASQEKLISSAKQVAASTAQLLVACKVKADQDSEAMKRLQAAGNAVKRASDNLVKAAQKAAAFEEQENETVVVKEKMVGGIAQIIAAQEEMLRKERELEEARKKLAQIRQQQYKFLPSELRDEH

With KVGFFPLEEAAEEGQ, in assay [1], the concentration for a half-maximal effect (EC50) is > 1000 nM.
The same measure, in the same setting: in the case of PLEEDDEEGQ it was > 1000 nM.
The same measure, in the same setting: the same measure for KVGFFKRNRPPLEEAAEEGQ: > 1000 nM.
For the molecule “full-length β3 peptide: full-length linear peptide of the β3 cytoplasmic domain (KLLITIHDRKEFAKFEEERARAKWDTANNPLYKEATSTFTNITYRGT)”, the “inhibition of antibody reactivity with platelet αIIbβ3” value (shortened to “inhibition of antibody reactivity”) in the assay on platelet αIIbβ3 is recorded as “only partially inhibited”.
As for PPLEED [PPLEED], the EC50 in assay [1] was > 1000 nM.
For the molecule “β3 (Y747A) mutant: mutant of the β3 cytoplasmic domain, Y747A (KLLITIHDRKEFAKFEEERARAKWDTANNPLAKEATSTFTNITYRGT)”, the “inhibition of antibody reactivity” value in the assay with platelet αIIbβ3 was “completely inhibited”.
On to “full-length αIIb peptide: full-length linear peptide of the αIIb cytoplasmic domain (KVGFFKRNRPPLEEDDEEGE)”, for which, in assay [1] (result in words), the “interaction with β3 cytoplasmic tail (induces conformation change seen by antibody)” value is reported as “apparent affinity of the interaction was high”. Moreover, the “inhibition of antibody reactivity” value in the assay on platelet αIIbβ3 was “not inhibited”.
Take KVGFFKRNRPPLEE: in assay [1], the EC50 is > 1000 nM.
Molecule NRPPLEEDDEEGQ [αIIb peptide NRPPLEEDDEEGQ] gave an EC50 in assay [2] of 8 nM.
On the same count and under the same terms, the same measure for NRPPLEEDD [αIIb peptide NRPPLEEDD]: 20 nM.

B1: G1-β1A: His-tag, four heptad repeats, one glycine, β1A integrin cytoplasmic domain (protein)
chain: GSSHHHHHHSSGLVPRGSHMCGKLEALEGRLDALEGKLEALEGKLDALEGKLLMIIHDRREFAKFEKEKMNAKWDTGENPIYKSAVTTVVNPKYEGK
In the case of B1, the “talin binding from cell lysates” value in the assay with talin is “bound”.
KLGFFKRSLPYGTAMEKAQLKPPATSDA (peptide, UniProt P08648 1022-1049, looked up, domain: cytoplasmic domain) [Cytoplasmic domain of integrin α5]: in assay [3], the binding result is recorded as “no binding”.
For RPPLEED [αIIb heptapeptide RPPLEED], the EC50 in assay [2] was determined as 30 nM.
Consider KVGFFKRNRPPLEEDDEEGQ [αIIb peptide KVGFFKRNRPPLEEDDEEGQ], for which the EC50 in assay [2] came to 3 nM.
Still for that read-out and setting: in the case of KVGFFKRNRPPLEEDD [αIIb peptide KVGFFKRNRPPLEEDD] it was 5 nM; in that of KRNRPPLEEDDEEGQ [αIIb peptide KRNRPPLEEDDEEGQ], 6 nM.
Take KAGFFKRQYKSILQEENRRDSWSYINSKSNDD (peptide, UniProt P13612 1001-1032, looked up, domain: cytoplasmic domain) [Cytoplasmic domain of integrin α4]: the binding result in assay [3] is listed as “no binding”.

B2: G4-β1A: β1A construct with three additional glycines between heptad repeats and cytoplasmic domain (protein)
chain: GSSHHHHHHSSGLVPRGSHMKLEALEGRLDALEGKLEALEGKLDALEGGGGKLLMIIHDRREFAKFEKEKMNAKWDTGENPIYKSAVTTVVNPKYEGK
With B2, the “talin binding from cell lysates” value with talin is reported as “bound”.

Source of the values: US20030224453A1, “Structural models for cytoplasmic domains of transmembrane receptors” (priority 1998, published 2003).
